Consider 4 molecules from PMC5768706, “Structural basis for chitin acquisition by marine Vibrio species” (Nature Communications, 2018).

Assay [1] has as its target T1, VhChiP (OM-expressed, native) (Vibrio harveyi, UniProt L0RVU0).
T1 construct: gene chiP; full-length mature protein after signal peptide processing, no His-tag, pET23d(+), expressed in outer membrane of E. coli BL21(DE3) omp8 rosetta, homotrimer
T1 sequence (L0RVU0 26-375): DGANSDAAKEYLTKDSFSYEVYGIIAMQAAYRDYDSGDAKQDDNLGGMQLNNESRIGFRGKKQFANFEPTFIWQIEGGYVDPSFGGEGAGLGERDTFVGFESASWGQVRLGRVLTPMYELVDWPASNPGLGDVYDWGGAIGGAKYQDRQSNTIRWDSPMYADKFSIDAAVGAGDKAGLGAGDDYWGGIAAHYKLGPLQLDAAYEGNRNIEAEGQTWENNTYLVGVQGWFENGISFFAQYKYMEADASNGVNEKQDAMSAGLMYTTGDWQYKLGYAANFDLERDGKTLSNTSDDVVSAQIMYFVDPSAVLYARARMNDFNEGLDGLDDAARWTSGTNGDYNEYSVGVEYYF
The experiment in a line: single-channel electrophysiology, planar lipid bilayer, ion current block titration. The settings on record: 1 M KCl, 20 mM HEPES pH 7.5, 25 °C, -100 mV, sugar on cis side; range printed jointly for both full-length channels. The class given is binding.

Assay [2] has as its target T1, VhChiP (OM-expressed, native). The experiment in a line: X-ray crystal structure of co-crystals. It counts as binding. The settings on record: 10 mM GlcNAc4, 0.1 M MES pH 6.5, 28% PEG 400.
Assay [3] deals with OM-expressed VhChiP (chitoporin from Vibrio harveyi) (Vibrio harveyi). The experiment in a line: crystal structure; OM-expressed VhChiP, 10 mg/mL, 0.4% C8E4; space group C2: 28% PEG 400, 0.2 M sodium acetate, 0.1 M MES pH 6.5.
Assay [4] has the same target. The experiment in a line: SDS-PAGE of non-boiled and boiled samples; purified protein loaded non-boiled and boiled; heat-modifiable mobility.
The target of assay [5] is in vitro-folded VhChiP (Vibrio harveyi). The experiment in a line: crystal structure; in vitro-folded SeMet VhChiP, ~12 mg/mL, 0.4% C8E4; crystal form I P2_(1): 30% PEG 400, 0.05 M NaCl, 0.1 M sodium citrate pH 5.5; crystal form II: 28% PEG 400, 0.5 M potassium iodide, 0.1 M Tris pH 8.5.
Assay [6] shares this target. The experiment in a line: SDS-PAGE of non-boiled and boiled samples; purified protein loaded non-boiled and boiled; heat-modifiable mobility.

By stoichiometry N is commonly meant the number of molecules, sites or subunits per partner or assembly.

Turning to `CC(=O)N[C@H]1[C@H](O[C@H]2[C@H](O)[C@@H](NC(C)=O)[C@H](O[C@H]3[C@H](O)[C@@H](NC(C)=O)C(O)O[C@@H]3CO)O[C@@H]2CO)O[C@H](CO)[C@@H](O[C@@H]2O[C@H](CO)[C@@H](O[C@@H]3O[C@H](CO)[C@@H](O[C@@H]4O[C@H](CO)[C@@H](O)[C@H](O)[C@H]4NC(C)=O)[C@H](O)[C@H]3NC(C)=O)[C@H](O)[C@H]2NC(C)=O)[C@@H]1O` (stereo partly drawn) [chitohexaose], the K in assay [1] was 2–5 × 10^5.

Turning to `CC(=O)N[C@H]1[C@H](O[C@H]2[C@H](O)[C@@H](NC(C)=O)C(O)O[C@@H]2CO)O[C@H](CO)[C@@H](O[C@@H]2O[C@H](CO)[C@@H](O[C@@H]3O[C@H](CO)[C@@H](O)[C@H](O)[C@H]3NC(C)=O)[C@H](O)[C@H]2NC(C)=O)[C@@H]1O` (stereo partly drawn) [chitotetraose], the “X-ray crystal structure of co-crystals” value in assay [2] is given as “we co-crystallized OM-expressed VhChiP with chitotetraose (GlcNAc4)”.

“OM-expressed VhChiP (chitoporin from Vibrio harveyi) (natural protein)”: the stoichiometry N in assay [3] and in assay [4] was 3 in each case.

For “in vitro-folded VhChiP (natural protein)”, the stoichiometry N in assay [5] and in assay [6] was 3 each time.
